Source: patent US20050095616A1
Values belong to the substance of their own block, whether it stands above or below them.

Tests used:
proteasome = assay: cell-based or functional assay
[1] = biological target: IκBα-beta-lactamase (IκBα-Bla) fusion protein, wild type (N-terminal IκBα and C-terminal Bla); assay: cell-based or functional assay
[2] = test system: IκB(S32A, S36A)-Bla mutant fusion protein

IC50 for inhibition of the TNFα-stimulated decrease in reporter levels (proteasome): 5 µM
Substance: ALLN (peptide)

decrease in β-lactamase activity of Jurkat IκB-Bla cells after 10 ng/ml TNFα [1]: 2 fold
Substance: IκB kinase (IKK) (enzyme)

Substance: IκB kinase (IKK)
decrease in β-lactamase activity in response to TNFα treatment (10 ng/ml, 30 minutes) [2]: the mutation of serines-32 and -36 abolished the decrease in β-lactamase activity in response to TNFα treatment
